Data taken from publication PMC9404457 (Nature, 2022).

Molecular target: T1, human FLAG-tagged PORCN (isoform B) (Homo sapiens, PORCN isoform B (Q9H237-2), strain)
T1 chain: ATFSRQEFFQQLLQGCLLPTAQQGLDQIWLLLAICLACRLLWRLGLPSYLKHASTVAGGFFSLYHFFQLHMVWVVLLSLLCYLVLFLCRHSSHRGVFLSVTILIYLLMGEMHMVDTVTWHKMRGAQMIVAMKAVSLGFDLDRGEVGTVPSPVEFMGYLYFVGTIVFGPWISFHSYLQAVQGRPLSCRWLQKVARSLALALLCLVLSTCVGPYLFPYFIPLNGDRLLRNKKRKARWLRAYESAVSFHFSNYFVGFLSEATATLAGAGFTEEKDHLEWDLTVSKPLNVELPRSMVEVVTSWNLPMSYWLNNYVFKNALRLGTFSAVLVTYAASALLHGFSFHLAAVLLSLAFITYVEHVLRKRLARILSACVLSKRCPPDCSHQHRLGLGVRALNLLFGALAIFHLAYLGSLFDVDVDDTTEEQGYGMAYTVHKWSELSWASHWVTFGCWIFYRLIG
Test: SEC

B1: Fab^2C11 (Fab, V domains shown)
VH: EIQLQQSGAELVKPGASVKMSCKVSGYSFTGYNMNWVKQSHGKSLEWIGNINPYYVSTNYNQKFTGKATFTVDRSSSTAYMQLDSLTSEDSAVYYCARSYGSSHTFAYWGQGTLVTVSS
VL: DIHMTQSPASLSAFVGETVTITCRTSENIFSYLAWYQQKQGKSPQLLVYNAKTLTSGVPSRFSGSGSGTQFSLKINSLQPEDFGSYYCQHHYGSPYTFGGGTKLEIK
binding result: binds
